Experimental data reported in patent US20140086936A1.

How the values were obtained:
[1] = molecular target: thrombin; experiment: enzyme inhibition, selectivity profile, mixed model fit
[2] = molecular target: T1, Recombinant purified human matriptase (amino acids 596-855) (human), Q9Y5Y6; experiment: enzyme inhibition, 1 nM enzyme, Boc-Gln-Ala-Arg-AMC substrate
T1 chain: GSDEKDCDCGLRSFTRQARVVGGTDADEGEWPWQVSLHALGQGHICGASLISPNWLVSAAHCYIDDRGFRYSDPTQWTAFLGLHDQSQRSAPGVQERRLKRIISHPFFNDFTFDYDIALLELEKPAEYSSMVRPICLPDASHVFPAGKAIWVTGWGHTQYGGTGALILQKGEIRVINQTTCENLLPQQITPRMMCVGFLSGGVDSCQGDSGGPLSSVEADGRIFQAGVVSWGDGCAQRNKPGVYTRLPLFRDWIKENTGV

[3] = molecular target: hepsin (human), P05981; experiment: as above
[4] = molecular target: Bovine trypsin (bovine), P00760; experiment: enzyme inhibition, selectivity profile, Morrison tight-binding fit
[5] = molecular target: T2, TMPRSS11D, O60235; experiment: as above
T2 chain: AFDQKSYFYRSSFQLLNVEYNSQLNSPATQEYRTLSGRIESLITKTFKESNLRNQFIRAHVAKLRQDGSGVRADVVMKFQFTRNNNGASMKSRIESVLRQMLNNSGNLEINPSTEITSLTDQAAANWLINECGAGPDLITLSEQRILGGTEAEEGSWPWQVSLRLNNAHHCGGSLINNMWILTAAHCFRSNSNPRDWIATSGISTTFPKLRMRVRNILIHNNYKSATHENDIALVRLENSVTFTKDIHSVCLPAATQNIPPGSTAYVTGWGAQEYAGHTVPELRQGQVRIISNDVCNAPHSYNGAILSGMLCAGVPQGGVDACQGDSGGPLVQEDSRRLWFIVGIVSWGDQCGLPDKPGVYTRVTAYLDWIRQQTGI

[6] = molecular target: T3, matriptase-2 (human), Q8IU80; experiment: as above
T3 chain: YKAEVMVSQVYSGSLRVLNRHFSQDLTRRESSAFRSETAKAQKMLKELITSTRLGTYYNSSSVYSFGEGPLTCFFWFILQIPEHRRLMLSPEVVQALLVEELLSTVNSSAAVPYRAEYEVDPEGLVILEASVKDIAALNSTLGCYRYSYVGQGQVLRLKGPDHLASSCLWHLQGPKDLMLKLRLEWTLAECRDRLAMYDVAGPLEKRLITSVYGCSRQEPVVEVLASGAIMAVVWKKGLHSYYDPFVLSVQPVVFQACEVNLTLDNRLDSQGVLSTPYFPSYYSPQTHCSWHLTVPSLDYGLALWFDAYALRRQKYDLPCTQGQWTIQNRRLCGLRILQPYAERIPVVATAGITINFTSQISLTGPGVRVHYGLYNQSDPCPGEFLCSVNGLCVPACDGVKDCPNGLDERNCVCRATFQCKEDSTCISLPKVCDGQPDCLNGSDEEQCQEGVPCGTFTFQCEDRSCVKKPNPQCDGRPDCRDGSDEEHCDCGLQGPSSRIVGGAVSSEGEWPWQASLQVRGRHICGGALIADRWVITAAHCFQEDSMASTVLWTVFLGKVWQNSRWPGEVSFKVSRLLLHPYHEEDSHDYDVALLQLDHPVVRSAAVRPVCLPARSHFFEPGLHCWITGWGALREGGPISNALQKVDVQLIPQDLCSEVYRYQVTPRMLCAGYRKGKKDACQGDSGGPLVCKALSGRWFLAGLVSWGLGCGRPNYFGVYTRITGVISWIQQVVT

[7] = molecular target: T1, Recombinant purified human matriptase …; experiment: enzyme inhibition, fluorogenic substrate Boc-Gln-Ala-Arg-AMC, mixed model fit
[8] = molecular target: T1, Recombinant purified human matriptase …; experiment: ratio of Ki values, enzyme inhibition
[9] = molecular target: T1, Recombinant purified human matriptase …; experiment: enzyme inhibition, 1 nM matriptase, 1 µM inhibitor, Boc-Gln-Ala-Arg-AMC 50 µM
[10] = molecular target: T1, Recombinant purified human matriptase …; experiment: enzyme inhibition, fluorogenic substrate Boc-Gln-Ala-Arg-AMC, Morrison tight-binding fit

Bovine trypsin (bovine), P00760, sequence (P00760 24-246): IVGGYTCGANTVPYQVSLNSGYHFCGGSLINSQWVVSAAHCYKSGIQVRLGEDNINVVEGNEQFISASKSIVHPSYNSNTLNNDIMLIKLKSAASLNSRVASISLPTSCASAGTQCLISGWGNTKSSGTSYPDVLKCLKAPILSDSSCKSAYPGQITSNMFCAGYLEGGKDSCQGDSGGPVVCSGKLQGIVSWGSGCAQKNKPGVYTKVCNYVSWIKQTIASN
hepsin (human), P05981, sequence (P05981 45-417 limits assumed): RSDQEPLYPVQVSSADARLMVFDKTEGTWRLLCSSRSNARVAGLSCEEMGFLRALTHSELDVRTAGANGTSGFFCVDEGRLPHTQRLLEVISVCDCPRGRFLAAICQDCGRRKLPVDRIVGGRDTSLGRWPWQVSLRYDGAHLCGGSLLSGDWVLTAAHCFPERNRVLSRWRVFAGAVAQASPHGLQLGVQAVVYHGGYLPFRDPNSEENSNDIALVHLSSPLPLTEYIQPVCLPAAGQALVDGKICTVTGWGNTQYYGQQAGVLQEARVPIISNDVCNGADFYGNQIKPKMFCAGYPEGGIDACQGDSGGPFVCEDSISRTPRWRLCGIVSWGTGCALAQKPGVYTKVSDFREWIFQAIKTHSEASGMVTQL

**Q.** Which results are given for RQAR (modifications not checked) [RQAR-ketobenzothiazole]?
**A.** Ki [1]: 637 nM; IC50 [2]: 29 nM; IC50 [3]: 540 nM; Ki [4]: 0.97 nM; Ki [5]: 8.4 nM; Ki [6]: 3.3 nM

**Q.** Which Ki [7] does the source give for RQAR (modifications not checked) [reduced form of RQAR-ketobenzothiazole] here?
**A.** 6120 nM

**Q.** With RQAK (modifications not checked) [RQAK-ketobenzothiazole] as the binder, how does the change of Ki relative to compound 1 (orders of magnitude) [8] read?
**A.** 3

**Q.** What about the percent inhibition of matriptase activity at 1 µM [9] of the same binder?
**A.** 25%

**Q.** And the Ki [10]?
**A.** 9.5 nM

**Q.** With RQAR (modifications not checked) [R-Q-A-(D)R ketobenzothiazole (compound 7)] as the binder, how does the Ki [10] read?
**A.** 4.6 nM
